Test results published in the RNAGym collection of RNA variant scans (doi:10.1101/gr.219683.116).

B1: mRNA-splicing (parent)
chain: AGUUGCUGCUGGGAGCUCCAGCACAGUGAAAUGGACAGAAGGGCAGAGCAA

Variants of: B1
Assay: exon inclusion enrichment index; higher = more inclusion; WT1 exon 5 minigene, HEK293

Q: Which “exon inclusion enrichment index” value does the source give for G5A U7C G8A U10C G15A C16G here?
A: 1.31

Q: For G5A U7C G8A U10C G15A C16U, which “exon inclusion enrichment index” value is on record?
A: 1.55

Q: For G5A U7C G8A U10C G15C, which “exon inclusion enrichment index” value is on record?
A: 2.72

Q: For G5A U7C G8A U10C G15C C16A, which “exon inclusion enrichment index” value is on record?
A: 1.77

Q: Which “exon inclusion enrichment index” value does the source give for G5A U7C G8A U10C G15C C16G here?
A: 2.13

Q: With G5A U7C G8A U10C G15C C16U as the variant, how does the “exon inclusion enrichment index” value read?
A: 2.28

Q: For G5A U7C G8A U10C G15U, which “exon inclusion enrichment index” value is on record?
A: 2.27

Q: Which “exon inclusion enrichment index” value does the source give for G5A U7C G8A U10C G15U C16A here?
A: 1.58

Q: Which “exon inclusion enrichment index” value does the source give for G5A U7C G8A U10C G15U C16G here?
A: 1.74

Q: For G5A U7C G8A U10C G15U C16U, which “exon inclusion enrichment index” value is on record?
A: 1.86

Q: With G5A U7C G8A U10C G21A as the variant, how does the “exon inclusion enrichment index” value read?
A: 1.67

Q: With G5A U7C G8A U10C G21A C22A as the variant, how does the “exon inclusion enrichment index” value read?
A: 1.09

Q: With G5A U7C G8A U10C G21A C22G as the variant, how does the “exon inclusion enrichment index” value read?
A: 2.31

Q: Which “exon inclusion enrichment index” value does the source give for G5A U7C G8A U10C G21A C22U here?
A: 1.26

Q: Which “exon inclusion enrichment index” value does the source give for G5A U7C G8A U10C G21C here?
A: 2.25

Q: Which “exon inclusion enrichment index” value does the source give for G5A U7C G8A U10C G21C C22A here?
A: 2.27

Q: With G5A U7C G8A U10C G21C C22G as the variant, how does the “exon inclusion enrichment index” value read?
A: 3.61

Q: Which “exon inclusion enrichment index” value does the source give for G5A U7C G8A U10C G21C C22U here?
A: 2.19

Q: For G5A U7C G8A U10C G21U, which “exon inclusion enrichment index” value is on record?
A: 1.92

Q: With G5A U7C G8A U10C G21U C22A as the variant, how does the “exon inclusion enrichment index” value read?
A: 0.951

Q: Which “exon inclusion enrichment index” value does the source give for G5A U7C G8A U10C G21U C22G here?
A: 2.27

Q: Which “exon inclusion enrichment index” value does the source give for G5A U7C G8A U10C G21U C22U here?
A: 0.857

Q: Which “exon inclusion enrichment index” value does the source give for G5A U7C G8A U10C G26A here?
A: 3.08

Q: For G5A U7C G8A U10C G26A U27A, which “exon inclusion enrichment index” value is on record?
A: 2.4

Q: For G5A U7C G8A U10C G26A U27C, which “exon inclusion enrichment index” value is on record?
A: 3.43

Q: For G5A U7C G8A U10C G26A U27G, which “exon inclusion enrichment index” value is on record?
A: 2.93

Q: With G5A U7C G8A U10C G26C as the variant, how does the “exon inclusion enrichment index” value read?
A: 2.46

Q: Which “exon inclusion enrichment index” value does the source give for G5A U7C G8A U10C G26C U27A here?
A: 2.48

Q: Which “exon inclusion enrichment index” value does the source give for G5A U7C G8A U10C G26C U27C here?
A: 3.74

Q: Which “exon inclusion enrichment index” value does the source give for G5A U7C G8A U10C G26C U27G here?
A: 3.53

Q: With G5A U7C G8A U10C G26U as the variant, how does the “exon inclusion enrichment index” value read?
A: 2.46

Q: Which “exon inclusion enrichment index” value does the source give for G5A U7C G8A U10C G26U U27A here?
A: 1.08

Q: For G5A U7C G8A U10C G26U U27C, which “exon inclusion enrichment index” value is on record?
A: 3.63

Q: For G5A U7C G8A U10C G26U U27G, which “exon inclusion enrichment index” value is on record?
A: 3.47

Q: For G5A U7C G8A U10C G28A, which “exon inclusion enrichment index” value is on record?
A: 0.733

Q: For G5A U7C G8A U10C G28A A29C, which “exon inclusion enrichment index” value is on record?
A: 1.44

Q: For G5A U7C G8A U10C G28A A29G, which “exon inclusion enrichment index” value is on record?
A: 1.02

Q: Which “exon inclusion enrichment index” value does the source give for G5A U7C G8A U10C G28A A29U here?
A: 0.513

Q: For G5A U7C G8A U10C G28C, which “exon inclusion enrichment index” value is on record?
A: 1.68

Q: Which “exon inclusion enrichment index” value does the source give for G5A U7C G8A U10C G28C A29C here?
A: 1.72

Q: Which “exon inclusion enrichment index” value does the source give for G5A U7C G8A U10C G28C A29G here?
A: 3.25

Q: With G5A U7C G8A U10C G28C A29U as the variant, how does the “exon inclusion enrichment index” value read?
A: 1.13

Q: For G5A U7C G8A U10C G28U, which “exon inclusion enrichment index” value is on record?
A: 0.556

Q: For G5A U7C G8A U10C G28U A29C, which “exon inclusion enrichment index” value is on record?
A: 1.47

Q: With G5A U7C G8A U10C G28U A29G as the variant, how does the “exon inclusion enrichment index” value read?
A: 2.07

Q: For G5A U7C G8A U10C G28U A29U, which “exon inclusion enrichment index” value is on record?
A: 0.443

Q: With G5A U7C G8A U10C G33A as the variant, how does the “exon inclusion enrichment index” value read?
A: 0.235

Q: For G5A U7C G8A U10C G33A G34A, which “exon inclusion enrichment index” value is on record?
A: 0.398

Q: For G5A U7C G8A U10C G33A G34C, which “exon inclusion enrichment index” value is on record?
A: 0.421

Q: Which “exon inclusion enrichment index” value does the source give for G5A U7C G8A U10C G33A G34U here?
A: 0.361

Q: With G5A U7C G8A U10C G33C as the variant, how does the “exon inclusion enrichment index” value read?
A: 2.65

Q: For G5A U7C G8A U10C G33C G34A, which “exon inclusion enrichment index” value is on record?
A: 1.53

Q: For G5A U7C G8A U10C G33C G34C, which “exon inclusion enrichment index” value is on record?
A: 1.34

Q: Which “exon inclusion enrichment index” value does the source give for G5A U7C G8A U10C G33C G34U here?
A: 1.72

Q: For G5A U7C G8A U10C G33U, which “exon inclusion enrichment index” value is on record?
A: 0.998

Q: For G5A U7C G8A U10C G33U G34A, which “exon inclusion enrichment index” value is on record?
A: 0.441

Q: Which “exon inclusion enrichment index” value does the source give for G5A U7C G8A U10C G33U G34C here?
A: 0.815

Q: Which “exon inclusion enrichment index” value does the source give for G5A U7C G8A U10C G33U G34U here?
A: 0.351

Q: With G5A U7C G8A U10C G34A as the variant, how does the “exon inclusion enrichment index” value read?
A: 1.51

Q: Which “exon inclusion enrichment index” value does the source give for G5A U7C G8A U10C G34A A35C here?
A: 1.83

Q: Which “exon inclusion enrichment index” value does the source give for G5A U7C G8A U10C G34A A35G here?
A: 1.09

Q: With G5A U7C G8A U10C G34A A35U as the variant, how does the “exon inclusion enrichment index” value read?
A: 0.813

Q: Which “exon inclusion enrichment index” value does the source give for G5A U7C G8A U10C G34C here?
A: 0.949

Q: For G5A U7C G8A U10C G34C A35C, which “exon inclusion enrichment index” value is on record?
A: 0.149

Q: With G5A U7C G8A U10C G34C A35G as the variant, how does the “exon inclusion enrichment index” value read?
A: 1.69

Q: With G5A U7C G8A U10C G34C A35U as the variant, how does the “exon inclusion enrichment index” value read?
A: 0.506

Q: For G5A U7C G8A U10C G34U, which “exon inclusion enrichment index” value is on record?
A: 0.607

Q: With G5A U7C G8A U10C G34U A35C as the variant, how does the “exon inclusion enrichment index” value read?
A: 0.726

Q: With G5A U7C G8A U10C G34U A35G as the variant, how does the “exon inclusion enrichment index” value read?
A: 0.753

Q: Which “exon inclusion enrichment index” value does the source give for G5A U7C G8A U10C G34U A35U here?
A: 0.441

Q: With G5A U7C G8A U10C G38A as the variant, how does the “exon inclusion enrichment index” value read?
A: 1.25

Q: With G5A U7C G8A U10C G38A A39C as the variant, how does the “exon inclusion enrichment index” value read?
A: 1.95

Q: For G5A U7C G8A U10C G38A A39G, which “exon inclusion enrichment index” value is on record?
A: 2.26

Q: For G5A U7C G8A U10C G38A A39U, which “exon inclusion enrichment index” value is on record?
A: 0.204

Q: For G5A U7C G8A U10C G38C, which “exon inclusion enrichment index” value is on record?
A: 1.83

Q: Which “exon inclusion enrichment index” value does the source give for G5A U7C G8A U10C G38C A39C here?
A: 2.25

Q: Which “exon inclusion enrichment index” value does the source give for G5A U7C G8A U10C G38C A39G here?
A: 2.15

Q: With G5A U7C G8A U10C G38C A39U as the variant, how does the “exon inclusion enrichment index” value read?
A: 0.229

Q: For G5A U7C G8A U10C G38U, which “exon inclusion enrichment index” value is on record?
A: 0.919

Q: Which “exon inclusion enrichment index” value does the source give for G5A U7C G8A U10C G38U A39C here?
A: 1.83

Q: With G5A U7C G8A U10C G38U A39G as the variant, how does the “exon inclusion enrichment index” value read?
A: 1.15

Q: With G5A U7C G8A U10C G38U A39U as the variant, how does the “exon inclusion enrichment index” value read?
A: 0.126

Q: Which “exon inclusion enrichment index” value does the source give for G5A U7C G8A U10C G41A here?
A: 1.44

Q: For G5A U7C G8A U10C G41A G42A, which “exon inclusion enrichment index” value is on record?
A: 1.99
